These results are taken from patent US20210284734A1 (SYMPHOGEN A S, published 2021).

Read-outs that look alike come from different tables or passages of the source.

Usually Kd stands for the concentration at which binding is half-saturated. A low value points to higher affinity. By koff is commonly meant the rate constant with which the complex falls apart. Read a low koff as a long-lived complex. As usually defined, the kon is the rate constant with which the complex forms. Higher therefore signals faster complex formation.

T1: His-tagged mouse PD-1 ECD (mouse (Mus musculus), UniProt Q02242 25-169)
T1 construct: bought from Sino Biologicals; not shown: His tag
T1 sequence: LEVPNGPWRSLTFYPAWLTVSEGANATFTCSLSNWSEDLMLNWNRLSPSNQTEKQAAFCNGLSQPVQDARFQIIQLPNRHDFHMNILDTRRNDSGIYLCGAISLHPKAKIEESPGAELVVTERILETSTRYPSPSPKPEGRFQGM

T2: His-tagged cynomolgus PD-1 ECD (cynomolgus (Macaca fascicularis), UniProt Q15116 25-170 (human entry))
T2 construct: bought from Acro Biosystems; not shown: His tag
T2 chain: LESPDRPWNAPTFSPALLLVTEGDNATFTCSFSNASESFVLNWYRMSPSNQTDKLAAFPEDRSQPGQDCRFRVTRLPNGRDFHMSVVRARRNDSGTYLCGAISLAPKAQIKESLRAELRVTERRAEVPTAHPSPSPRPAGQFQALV

B1: cyno PD1 (receptor)
receptor: LESPDRPWNAPTFSPALLLVTEGDNATFTCSFSNASESFVLNWYRMSPSNQTDKLAAFPEDRSQPGQDCRFRVTRLPNGRDFHMSVVRARRNDSGTYLCGAISLAPKAQIKESLRAELRVTERRAEVPTAHPSPSPRPAGQFQALVVGVVGGLLGSLVLLVWVLAVICSRAAQGTIEARRTGQPLKEDPSAVPVFSVDYGELDFQWREKTPEPPAPCVPEQTEYATIVFPSGLGTSSPARRGSADGPRSPRPLRPEDGHCSWPL
notes: also called cynomolgus PD-1 expressed on CFSE-stained CHO-S cells
B2: 12865.17150 (antibody, human IgG1, lambda, L234A L235A, V domains shown)
VH: EVQLLESGGGLVQPGGSLRLSCAASGFDFSDHGMQWVRQAPGKGLEYVGVIDTTGRYTYYAPAVKGRATISRDNSKNTLYLQMNSLRAEDTAVYYCAKTTCVGGYLCNTVGSIDAWGQGTLVTVSS
VL: SYELTQDPAVSVALGQTVRITCSGGGSSSYYGWYQQKPGQAPVTVIYDDTNRPSGIPDRFSGSSSGNTASLTITGAQAEDEADYYCGGYEGSSHAGIFGSGTKVTVLG
B3: 12777.13362 (antibody, human IgG1, lambda, L234A L235A)
heavy: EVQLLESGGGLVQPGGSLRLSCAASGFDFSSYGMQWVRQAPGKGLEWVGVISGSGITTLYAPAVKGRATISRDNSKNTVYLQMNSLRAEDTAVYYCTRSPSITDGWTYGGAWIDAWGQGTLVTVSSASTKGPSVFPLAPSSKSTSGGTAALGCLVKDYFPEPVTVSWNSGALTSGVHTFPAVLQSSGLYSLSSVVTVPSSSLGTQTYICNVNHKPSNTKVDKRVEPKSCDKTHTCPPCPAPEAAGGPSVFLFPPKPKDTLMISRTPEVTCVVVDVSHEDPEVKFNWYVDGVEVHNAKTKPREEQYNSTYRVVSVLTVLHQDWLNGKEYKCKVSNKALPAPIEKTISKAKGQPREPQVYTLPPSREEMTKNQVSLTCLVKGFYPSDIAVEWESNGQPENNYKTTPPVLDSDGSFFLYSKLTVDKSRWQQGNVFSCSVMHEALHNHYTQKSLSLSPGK
light: ELTQDPAVSVALGQTVRITCSGGDGSYGWFQQKPGQAPVTVIYDNDNRPSDIPDRFSGSSSGNTASLTITGAQAEDEADYYCGNADLSGGIFGSGTKVTVLGQPKANPTVTLFPPSSEELQANKATLVCLISDFYPGAVTVAWKADGSPVKAGVETTKPSKQSNNKYAASSYLSLTPEQWKSHRSYSCQVTHEGSTVEKTVAPTECS
notes: same as 12777.15382 but without the N-terminal SY of the light chain
B4: 12819.15384 (antibody, human IgG1, lambda, L234A L235A)
heavy: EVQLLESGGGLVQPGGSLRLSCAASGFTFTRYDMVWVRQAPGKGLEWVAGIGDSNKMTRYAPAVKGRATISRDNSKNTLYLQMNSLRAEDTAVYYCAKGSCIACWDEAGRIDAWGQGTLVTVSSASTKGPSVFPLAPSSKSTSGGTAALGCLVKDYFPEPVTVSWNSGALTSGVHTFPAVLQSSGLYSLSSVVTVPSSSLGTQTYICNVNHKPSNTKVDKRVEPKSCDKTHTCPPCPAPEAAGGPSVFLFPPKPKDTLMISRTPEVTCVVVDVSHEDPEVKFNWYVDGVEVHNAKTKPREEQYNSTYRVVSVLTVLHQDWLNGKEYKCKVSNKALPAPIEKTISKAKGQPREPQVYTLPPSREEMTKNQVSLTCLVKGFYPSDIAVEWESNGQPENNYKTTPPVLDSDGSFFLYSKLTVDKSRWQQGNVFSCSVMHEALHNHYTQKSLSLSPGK
light: SYELTQDPAVSVALGQTVRITCSGGGSYDGSSYYGWYQQKPGQAPVTVIYNNNNRPSDIPDRFSGSSSGNTASLTITGAQAEDEADYYCGSYDRPETNSDYVGMFGSGTKVTVLGQPKANPTVTLFPPSSEELQANKATLVCLISDFYPGAVTVAWKADGSPVKAGVETTKPSKQSNNKYAASSYLSLTPEQWKSHRSYSCQVTHEGSTVEKTVAPTECS
notes: humanized, IgG1 LALA, lambda

Assay [1] concerns the target T3, R-PE labeled human PD-L1-Fc chimera protein (human, UniProt Q9NZQ7 19-239, conjugated to R-phycoerythrin (R-PE)).
T3 construct: bought from R&D Systems; not shown: Fc of the commercial chimera
Description: flow cytometry, PD-1-transfected CHO-S cells; R-PE PD-L1-Fc 16.4 nM in the presence of the negative control ramucirumab 10 ug/ml. In general terms: A flow cytometer gives signals particle by particle.

Assay [2] addresses T1, His-tagged mouse PD-1 ECD. Description: SPR, IgG captured, monovalent PD-1 ECD analyte. A general note: SPR reads the build-up and loss of mass on a sensor chip optically.
For assay [3], the target named is T4, human PD-1 expressed on CHO-S cells (human, UniProt Q15116 25-288).
T4 construct: also called PD-1-expressing cells
Description: flow cytometry competition, 10 ug/ml antibody vs R-PE PD-L1-Fc on PD-1 CHO-S cells.

In the assay “cyno PD1” the target is B1. Description: flow cytometry, PD-1-transfected CHO-S cells; mAb 10 ug/ml, then R-PE PD-L1-Fc as blocked ligand.
The target of assay [4] is T4, human PD-1 expressed on CHO-S cells. The description is as above.
Assay [5] deals with T5, human PD-1 Fc fusion protein (Sino Biological) (human, UniProt Q15116 25-167, limits assumed).
T5 construct: bought; not shown: Fc of the commercial fusion protein
Description: BLI, PD-1-Fc saturated with 10 ug/ml antibody, then PD-L1-Fc. For orientation: Biolayer interferometry detects binding as a change in optical thickness at a sensor tip.

Assay [6] concerns the target T5, human PD-1 Fc fusion protein (Sino …). Description: BLI, PD-1-Fc saturated with 10 ug/ml antibody, then PD-L2-Fc.
Assay [7] has as its target T6, His-tagged human PD-1 ECD (human, UniProt Q15116 25-170).
T6 construct: bought from Acro Biosystems; not shown: His tag
Description: SPR, IgG captured, monovalent PD-1 ECD analyte.

Assay [8] concerns the target T1, His-tagged mouse PD-1 ECD. Description: SPR, IgG captured, monovalent PD-1 ECD analyte. This is another data set of the same source.
Assay [9] deals with T6, His-tagged human PD-1 ECD. Description: SPR, IgG captured, monovalent PD-1 ECD analyte. This is another data set of the same source.
Assay [10] concerns the target T2, His-tagged cynomolgus PD-1 ECD. Description: SPR, IgG captured, monovalent PD-1 ECD analyte.
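Throughout, for % of all cells in Q3 of panel PD-L1 binding (PD-L1-, CFSE+ cyno PD1 cells): human PD-1 CHO-S cells mixed with CFSE-labelled cyno PD-1 CHO-S cells, antibody binding read with APC anti-human IgG light chain detection.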
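Throughout, for % of cyno PD1-gated cells in Q1 (mAb+, PD-L1-): human PD-1 CHO-S cells mixed with CFSE-labelled cyno PD-1 CHO-S cells, antibody binding read with APC anti-human IgG light chain detection.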
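Throughout, for % of cyno PD1-gated cells in Q2 (mAb+, PD-L1+): human PD-1 CHO-S cells mixed with CFSE-labelled cyno PD-1 CHO-S cells, antibody binding read with APC anti-human IgG light chain detection.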
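Throughout, for % of cyno PD1-gated cells in Q3 (mAb-, PD-L1+): human PD-1 CHO-S cells mixed with CFSE-labelled cyno PD-1 CHO-S cells, antibody binding read with APC anti-human IgG light chain detection.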

T4 sequence (Q15116 25-288 limits assumed): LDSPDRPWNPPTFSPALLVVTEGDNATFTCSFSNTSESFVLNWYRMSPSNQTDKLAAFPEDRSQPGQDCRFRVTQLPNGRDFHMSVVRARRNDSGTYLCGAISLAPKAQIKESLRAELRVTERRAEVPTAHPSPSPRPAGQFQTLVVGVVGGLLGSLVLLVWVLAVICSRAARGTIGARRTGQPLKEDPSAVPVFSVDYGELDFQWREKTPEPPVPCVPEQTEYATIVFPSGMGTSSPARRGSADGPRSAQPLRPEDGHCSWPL
T6 sequence (Q15116 25-170): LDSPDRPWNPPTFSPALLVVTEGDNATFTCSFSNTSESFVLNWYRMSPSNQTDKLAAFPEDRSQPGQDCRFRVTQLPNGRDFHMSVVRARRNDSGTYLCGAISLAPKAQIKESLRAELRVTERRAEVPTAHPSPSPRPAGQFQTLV
T5 sequence (Q15116 25-167 limits assumed): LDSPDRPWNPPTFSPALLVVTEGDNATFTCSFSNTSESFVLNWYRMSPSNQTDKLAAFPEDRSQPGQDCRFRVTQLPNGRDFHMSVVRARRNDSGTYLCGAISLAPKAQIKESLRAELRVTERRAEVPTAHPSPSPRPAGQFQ
T3 sequence (Q9NZQ7 19-239, change not shown): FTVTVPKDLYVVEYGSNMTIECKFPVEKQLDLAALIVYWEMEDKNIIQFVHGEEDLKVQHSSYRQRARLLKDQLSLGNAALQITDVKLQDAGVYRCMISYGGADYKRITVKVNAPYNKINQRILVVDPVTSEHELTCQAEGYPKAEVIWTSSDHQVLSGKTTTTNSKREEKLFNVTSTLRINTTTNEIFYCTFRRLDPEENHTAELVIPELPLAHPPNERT

For the molecule B1, the binding result in assay [1] is “binds”.
On to B2, for which the binding result in assay [2] was “no binding”.
As for B3, the “% PD-L1 binding inhibition” value in [3] was 69%. In the assay with cyno PD1, the “% of all cells in Q3 of panel PD-L1 binding (PD-L1-, CFSE+ cyno PD1 cells)” value was determined as 50%; the “% of cyno PD1-gated cells in Q1 (mAb+, PD-L1-)” value is 51.8%; the “% of cyno PD1-gated cells in Q2 (mAb+, PD-L1+)” value came to 11.4%; the “% of cyno PD1-gated cells in Q3 (mAb-, PD-L1+)” value was 0.74%. In the assay with cyno PD1, the “% of cyno PD1-gated cells in Q4 (mAb-, PD-L1-)” value was 36.1%. Also, in assay [4], the “% of all cells in Q1 of panel PD-L1 binding (PD-L1+, CFSE- human PD1 cells)” value is 2.56%; the “% of all cells in Q4 of panel PD-L1 binding (PD-L1-, CFSE- human PD1 cells)” value came to 45.3%; the “% of human PD1-gated cells in Q1 (mAb+, PD-L1-)” value worked out at 59.6%; the “% of human PD1-gated cells in Q2 (mAb+, PD-L1+)” value was 14.3%. In addition, in assay [4], the “% of human PD1-gated cells in Q3 (mAb-, PD-L1+)” value worked out at 0.28% and the “% of human PD1-gated cells in Q4 (mAb-, PD-L1-)” value is 25.9%. In [5], the “% Blocking” value was 93%. In assay [6], the “% Blocking” value is 90%.
For B4, the dissociation constant (Kd) was determined as 28 pM in [7], 809 pM in [8], 20 pM in [9] and 5 pM in assay [10]. In addition, the koff was determined as 8.85e-06 s⁻¹ in [7], 3.04e-05 s⁻¹ in [8], 2.3e-05 s⁻¹ in [9] and 4.5e-06 s⁻¹ in assay [10]. Also, the kon was 326000 M⁻¹ s⁻¹ in assay [7], 37100 M⁻¹ s⁻¹ in assay [8], 1.1e+06 M⁻¹ s⁻¹ in [9] and 970000 M⁻¹ s⁻¹ in assay [10].
